Values of other authors in patent US20040120897A1, “Method for administering insulinotropic peptides” (priority 1998, published 2004).

Conditions: calculated, background statement

## parathyroid hormone (1-34): peptide hormone cited in the background for its pulmonary absorption value
  absorption value after delivery through the lungs: fifteen

## glycosylated α1-antitrypsin: protein cited in the background for its pulmonary absorption value
  absorption value after delivery through the lungs: 48 h
